The results in this text go back to patent US20230000916A1 (University of Pennsylvania, published 2023).

The test concerns the target T1, F12Q CAR.
T1 construct: also called F12Qz CAR; F12Q chimeric receptor
The test can be described thus: flow cytometry; K562.64.86.F12Qz cells stained with soluble biotinylated CD3 epsilon, then streptavidin-PE. A general note: A flow cytometer gives signals particle by particle.

B1: Biotinylated Human CD3 epsilon Protein (AcroBiosystems Cat #CDE-H82E1) (other, UniProt P07766 23-126, looked up)
chain: DGNEEMGGITQTPYKVSISGTTVILTCPQYPGSEILWQHNDKNIGGDEDDKNIGSDEDHLSLKEFSELEQSGYYVCYPRGSKPEDANFYLYLRARVCENCMEMD
modifications: biotinylated
notes: Bought reagent; also called soluble CD3-epsilon protein; soluble, biotinylated CD3ε protein
Regarding B1, the binding result was “binds”.
